Target: respiratory complex IV (S. cerevisiae (endogenous in yeast mitochondria)) (UniProt P00410)
Assay: co-IP

Sequence of UniProt P00410 (P00410 whole entry, looked up, one chain of several): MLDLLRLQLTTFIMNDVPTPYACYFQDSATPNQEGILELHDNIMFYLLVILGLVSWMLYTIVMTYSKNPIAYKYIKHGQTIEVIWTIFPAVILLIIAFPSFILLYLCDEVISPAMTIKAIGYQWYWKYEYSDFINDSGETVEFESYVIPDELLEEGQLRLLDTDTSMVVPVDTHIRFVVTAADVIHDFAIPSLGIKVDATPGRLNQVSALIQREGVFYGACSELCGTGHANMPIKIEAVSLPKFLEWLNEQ

“AAC2, the major ADP/ATP carrier (endogenous) (from UniProt P18239 1-318) (natural protein)” showed a percent of the total AAC2 content associated with the respiratory supercomplex of 0.5 to 1%.
